Where a SMILES comes first, the peptide text is derived from it. Where no end group is shown, it is not given here. [ ]: non-standard residue; d: D form. pT = C[C@@H](OP(=O)(O)O)[C@H](N)C(=O)O; pS = N[C@@H](COP(=O)(O)O)C(=O)O

One experiment deals with T1, 14-3-3 isoform epsilon (Homo sapiens, UniProt P62258).
T1 construct: His6; made in house; host or cells: Escherichia coli BL21 Rosetta (DE3)
T1 sequence (P62258 1-255): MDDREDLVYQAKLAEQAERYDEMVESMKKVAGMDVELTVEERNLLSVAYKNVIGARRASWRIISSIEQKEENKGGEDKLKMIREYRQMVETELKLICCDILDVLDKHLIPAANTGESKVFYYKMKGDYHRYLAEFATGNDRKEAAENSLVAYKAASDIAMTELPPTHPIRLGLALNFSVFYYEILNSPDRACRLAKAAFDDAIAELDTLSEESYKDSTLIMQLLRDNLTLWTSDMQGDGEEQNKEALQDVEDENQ
Kind of experiment: Label-free microscale thermophoresis (MST) binding, 14-3-3 epsilon. The following applies: label-free MST, 0.6 µM 14-3-3 protein, 25 mM MES pH 6.5, 5 mM MgCl2, 5 mM CaCl2, 25°C; Kd from duplicate measurements. The protocol:
(§1) The binding of phosphorylated sirtuin peptides (Fig. 1 ▸) was analyzed using the change in the intrinsic fluorescence signal of the 14-3-3 proteins measured with label-free microscale thermophoresis using a Nanotemper Monolith NT.LabelFree or NT.115. A typical binding experiment using 0.6 µM 14-3-3 protein was performed in a modified MST buffer consisting of 25 mM MES pH 6.5, 5 mM MgCl2, 5 mM CaCl2. The measurements were performed at 25°C using a LED power of 10–40%. All measurements were performed at least in duplicate, and the results shown are representative measurements individually fitted using GraFit 7 (Erathicus Software, Horley, United Kingdom).
(§2) Figure 1 Classification and analysis of sirtuin PSSM results for potential 14-3-3 phosphoserine binding sites. Peptides with a gray background were not analyzed experimentally. Score is the overall PSSM score for the phosphorylation site; rank is the order within the 17 proposed sirtuin binding sites. Conserved residues in the 14-3-3 motifs are marked in green. Residues with restricted (proline) or very flexible (glycine) protein backbone or with a very large side chain (tryptophan) are marked in red. Amino acids with the same or similar hydrophobicity/size are shown in magenta. Kd values from duplicate measurements are colored green for Kd < 100 µM. Fields marked in red indicate no binding or no successful experiment. TEXT PRINTED IN THE PICTURE: Sirt1 S26: Affinity estimates by MicroScale Thermophoresis [μM], 14-3-3 isoform sigma: none | Sirt1 S670: Affinity estimates by MicroScale Thermophoresis [μM], 14-3-3 isoform gamma: aggr.; Affinity estimates by MicroScale Thermophoresis [μM], 14-3-3 isoform epsilon: > 183; Affinity estimates by MicroScale Thermophoresis [μM], 14-3-3 isoform theta: 93; Affinity estimates by MicroScale Thermophoresis [μM], 14-3-3 isoform sigma: 5 | Sirt3 S103: Affinity estimates by MicroScale Thermophoresis [μM], 14-3-3 isoform gamma: aggr.; Affinity estimates by MicroScale Thermophoresis [μM], 14-3-3 isoform epsilon: > 267; Affinity estimates by MicroScale Thermophoresis [μM], 14-3-3 isoform theta: 52; Affinity estimates by MicroScale Thermophoresis [μM], 14-3-3 isoform sigma: 10 | Sirt3 S103wt: Affinity estimates by MicroScale Thermophoresis [μM], 14-3-3 isoform gamma: aggr.; Affinity estimates by MicroScale Thermophoresis [μM], 14-3-3 isoform theta: none; Affinity estimates by MicroScale Thermophoresis [μM], 14-3-3 isoform sigma: none | Sirt3 S105: Affinity estimates by MicroScale Thermophoresis [μM], 14-3-3 isoform gamma: aggr.; Affinity estimates by MicroScale Thermophoresis [μM], 14-3-3 isoform epsilon: > 215; Affinity estimates by MicroScale Thermophoresis [μM], 14-3-3 isoform theta: 60; Affinity estimates by MicroScale Thermophoresis [μM], 14-3-3 isoform sigma: none | Sirt5 S168: Affinity estimates by MicroScale Thermophoresis [μM], 14-3-3 isoform epsilon: aggr.; Affinity estimates by MicroScale Thermophoresis [μM], 14-3-3 isoform theta: aggr.; Affinity estimates by MicroScale Thermophoresis [μM], 14-3-3 isoform sigma: > 329 | Sirt6 T337: Affinity estimates by MicroScale Thermophoresis [μM], 14-3-3 isoform epsilon: > 420; Affinity estimates by MicroScale Thermophoresis [μM], 14-3-3 isoform sigma: 12 | Sirt6 S338: Affinity estimates by MicroScale Thermophoresis [μM], 14-3-3 isoform epsilon: 19; Affinity estimates by MicroScale Thermophoresis [μM], 14-3-3 isoform sigma: 24 | Sirt7 S136: Affinity estimates by MicroScale Thermophoresis [μM], 14-3-3 isoform epsilon: none; Affinity estimates by MicroScale Thermophoresis [μM], 14-3-3 isoform theta: 30; Affinity estimates by MicroScale Thermophoresis [μM], 14-3-3 isoform sigma: 49

The target in the next experiment is T2, 14-3-3 isoform theta (Homo sapiens, UniProt P27348).
T2 construct: His6; made in house; host or cells: Escherichia coli BL21 Rosetta (DE3)
T2 sequence (P27348 1-245): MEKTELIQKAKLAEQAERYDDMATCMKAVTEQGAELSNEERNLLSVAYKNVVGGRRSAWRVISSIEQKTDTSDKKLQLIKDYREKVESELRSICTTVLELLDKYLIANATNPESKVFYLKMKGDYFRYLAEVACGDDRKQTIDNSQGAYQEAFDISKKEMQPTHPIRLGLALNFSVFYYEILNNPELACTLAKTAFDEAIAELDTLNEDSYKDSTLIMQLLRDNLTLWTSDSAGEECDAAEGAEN
Kind of experiment: Label-free microscale thermophoresis (MST) binding, 14-3-3 theta. The following applies: label-free MST, 0.6 µM 14-3-3 protein, 25 mM MES pH 6.5, 5 mM MgCl2, 5 mM CaCl2, 25°C; Kd from duplicate measurements; read-out: Affinity estimates by MicroScale Thermophoresis, 14-3-3 isoform theta (Kd). The protocol:
as §1, §2

In another experiment the target is T3, 14-3-3 epsilon (Homo sapiens).
T3 chain: T1 sequence (P62258 1-255)
Kind of experiment: MST.

The next experiment addresses T4, 14-3-3 theta (Homo sapiens).
T4 chain: T2 sequence (P27348 1-245)
Briefly: MST.

Experiment [1] concerns the target T5, 14-3-3σ-ΔC (C-terminally truncated human 14-3-3σ) (human, UniProt P31947 1-231).
T5 chain: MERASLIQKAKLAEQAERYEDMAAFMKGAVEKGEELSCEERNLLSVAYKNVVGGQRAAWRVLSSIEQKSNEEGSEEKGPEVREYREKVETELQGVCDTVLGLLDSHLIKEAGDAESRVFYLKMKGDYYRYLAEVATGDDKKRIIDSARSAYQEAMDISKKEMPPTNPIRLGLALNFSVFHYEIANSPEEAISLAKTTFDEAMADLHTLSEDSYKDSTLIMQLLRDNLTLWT
Briefly: MST.

For `CC(C)C[C@H](NC(=O)[C@H](CC(=O)O)NC(=O)[C@H](C)NC(=O)[C@H](C)NC(=O)[C@H](COP(=O)(O)O)NC(=O)[C@@H](NC(=O)[C@H](CO)NC(=O)[C@H](CCCNC(=N)N)NC(=O)CNC(=O)[C@@H](N)CCCCN)C(C)C)C(=O)N[C@@H](CO)C(=O)O` [Sirt7 S136] (H-KGRSV[pS]AADLS-OH), the “Affinity estimates by MicroScale Thermophoresis, 14-3-3 isoform epsilon (Kd)” value on 14-3-3 isoform epsilon is reported as “none”. Moreover, the Kd on 14-3-3 isoform theta was 30 µM.

B1: Sirt3^pS105 phospho-endecamer peptide (peptide)
chain: RSISF[pS]VGASS
modifications: also: phosphoserine at 105 (place in chain not given here)
On to B1, for which the equilibrium dissociation constant (Kd) with 14-3-3 epsilon is over 215 µM; with 14-3-3 theta it was 60 µM.

B2: Sirt6^pT336 phospho-endecamer peptide (peptide)
chain: KRERP[pT]SPAPH
On to B2, for which the Kd is 12 µM in experiment [1] and over 420 µM with 14-3-3 epsilon.

B3: Sirt6^pS338 phospho-endecamer peptide (peptide)
chain: RERPT[pS]PAPHR
Turning to B3, the Kd in experiment [1] worked out at 24 µM; in the experiment with 14-3-3 epsilon, 19 µM.

B4: Sirt7 pS136 (peptide)
chain: KGRSV[pS]AADLS
In turn, B4 returned a Kd in experiment [1] of 49 µM.

B5: Sirt7 pS136 (peptide)
chain: KGRSV[pS]AADLS
Regarding B5, in the experiment with 14-3-3 theta, the affinity, expressed as Kd, was 30 µM.

B6: Sirt5 pS168 (peptide)
chain: KTRCT[pS]CGVVA
modifications: cysteine pairing not given here
Turning to B6, in experiment [1], the Kd is over 329 µM.

The values are drawn from paper PMC12809495, “Potential 14-3-3 binding sites in sirtuins reveal extended phosphosite-recognition modes” (Acta Crystallographica Section F: Structural Biology …, 2026).
